Measured values as given in the supplement of paper PMC11246515.
± gives the standard deviation of the averaged measurements.

Assay: total protein half-life in vivo (active degradation + dilution); higher = more stable protein
[1] = E. coli NCM3722 delta-clpP delta-lon delta-hslV, growth: N-lim chemostat, doubling time 6 h
[2] = E. coli NCM3722 delta-clpP, growth: N-lim chemostat, doubling time 6 h
[3] = E. coli NCM3722 delta-hslV, growth: N-lim chemostat, doubling time 6 h
[4] = E. coli NCM3722 delta-lon, growth: N-lim chemostat, doubling time 6 h
[5] = E. coli NCM3722 delta-smpB, growth: N-lim chemostat, doubling time 6 h
[6] = wild type E. coli NCM3722, growth: C-lim chemostat, doubling time 3 h
[7] = wild type E. coli NCM3722, growth: C-lim chemostat, doubling time 6 h
[8] = wild type E. coli NCM3722, growth: C-lim chemostat, doubling time 12 h
[9] = wild type E. coli NCM3722, growth: N-lim chemostat, doubling time 6 h
[10] = wild type E. coli NCM3722, growth: N-lim chemostat, doubling time 12 h
[11] = wild type E. coli NCM3722, growth: P-lim chemostat, doubling time 6 h
[12] = wild type E. coli NCM3722, growth: P-lim chemostat, doubling time 12 h

| Sequence | total protein half-life in vivo [1] | total protein half-life in vivo [2] | total protein half-life in vivo [3] | total protein half-life in vivo [4] | total protein half-life in vivo [5] | total protein half-life in vivo [6] | total protein half-life in vivo [7] | total protein half-life in vivo [8] | total protein half-life in vivo [9] | total protein half-life in vivo [10] | total protein half-life in vivo [11] | total protein half-life in vivo [12] |
| --- | --- | --- | --- | --- | --- | --- | --- | --- | --- | --- | --- | --- |
| MKLQQLRYIVEVVNHNLNVSSTAEGLYTSQPGISKQVRMLEDELGIQIFSRSGKHLTQVTPAGQEIIRIAREVLSKVDAIKSVAGEHTWPDKGSLYIATTHTQARYALPNVIKGFIERYPRVSLHMHQGSPTQIADAVSKGNADFAIATEALHLYEDLVMLPCYHWNRAIVVTPDHPLAGKKAITIEELAQYPLVTYTFGFTGRSELDTAFNRAGLTPRIVFTATDADVIKTYVRLGLGVGVIASMAVDPVADPDLVRVDAHDIFSHSTTKIGFRRSTFLRSYMYDFIQRFAPHLTRDVVDAAVALRSNEEIEVMFKDIKLPEK [P0A9F3] | 7.08 ± 0.39 h | 4.65 ± 0.091 h | 5.88 ± 0.65 h | 5.93 ± 0.08 h | 4.96 ± 0.18 h | 2.98 ± 0.23 h | 5.63 ± 0.12 h | 10 ± 1.2 h | 5.41 ± 0.36 h | 11 ± 0.51 h | 4.01 ± 0.32 h | 7.28 ± 0.33 h |
| MKLRSVTYALFIAGLAAFSTSSLAAQSLRFGYETSQTDSQHIAAKKFNDLLQERTKGELKLKLFPDSTLGNAQAMISGVRGGTIDMEMSGSNNFAGLSPVMNLLDVPFLFRDTAHAHKTLDGKVGDDLKASLEGKGLKVLAYWENGWRDVTNSRAPVKTPADLKGLKIRTNNSPMNIAAFKVFGANPIPMPFAEVYTGLETRTIDAQEHPINVVWSAKFFEVQKFLSLTHHAYSPLLVVINKAKFDGLSPEFQQALVSSAQEAGNYQRKLVAEDQQKIIDGMKEAGVEVITDLDRKAFSDALGNQVRDMFVKDVPQGADLLKAVDEVQ | 4.65 h | – | – | – | – | 3.23 ± 0.18 h | 6.69 ± 0.32 h | 9.23 ± 0.3 h | – | – | – | – |
| MKLRWFAFLIVLLAGCSSKHDYTNPPWNAKVPVQRAMQWMPISQKAGAAWGVDPQLITAIIAIESGGNPNAVSKSNAIGLMQLKASTSGRDVYRRMGWSGEPTTSELKNPERNISMGAAYLNILETGPLAGIEDPKVLQYALVVSYANGAGALLRTFSSDRKKAISKINDLDADEFLEHVARNHPAPQAPRYIYKLEQALDAM [P0C960] | – | 4.98 ± 0.62 h | 3.8 ± 0.54 h | 3.57 ± 0.47 h | 2.72 ± 0.08 h | 1.97 ± 0.14 h | 2.98 ± 0.34 h | 6.46 ± 0.21 h | 2.84 ± 0.17 h | 3.2 h | 4 ± 0.3 h | 7.81 ± 0.18 h |
| MKLSRRSFMKANAVAAAAAAAGLSVPGVARAVVGQQEAIKWDKAPCRFCGTGCGVLVGTQQGRVVACQGDPDAPVNRGLNCIKGYFLPKIMYGKDRLTQPLLRMKNGKYDKEGEFTPITWDQAFDVMEEKFKTALKEKGPESIGMFGSGQWTIWEGYAASKLFKAGFRSNNIDPNARHCMASAVVGFMRTFGMDEPMGCYDDIEQADAFVLWGANMAEMHPILWSRITNRRLSNQNVTVAVLSTYQHRSFELADNGIIFTPQSDLVILNYIANYIIQNNAINQDFFSKHVNLRKGATDIGYGLRPTHPLEKAAKNPGSDASEPMSFEDYKAFVAEYTLEKTAEMTGVPKDQLEQLAQLYADPNKKVISYWTMGFNQHTRGVWANNLVYNLHLLTGKISQPGCGPFSLTGQPSACGTAREVGTFAHRLPADMVVTNEKHRDICEKKWNIPSGTIPAKIGLHAVAQDRALKDGKLNVYWTMCTNNMQAGPNINEERMPGWRDPRNFIIVSDPYPTVSALAADLILPTAMWVEKEGAYGNAERRTQFWRQQVQAPGEAKSDLWQLVQFSRRFKTEEVWPEDLLAKKPELRGKTLYEVLYATPEVSKFPVSELAEDQLNDESRELGFYLQKGLFEEYAWFGRGHGHDLAPFDDYHKARGLRWPVVNGKETQWRYSEGNDPYVKAGEGYKFYGKPDGKAVIFALPFEPAAEAPDEEYDLWLSTGRVLEHWHTGSMTRRVPELHRAFPEAVLFIHPLDAKARDLRRGDKVKVVSRRGEVISIVETRGRNRPPQGLVYMPFFDAAQLVNKLTLDATDPLSKETDFKKCAVKLEKV | 4.71 h | – | 5.32 ± 0.18 h | 3.56 ± 0.76 h | 3.46 ± 0.36 h | 2.03 ± 0.31 h | 4.52 ± 0.7 h | 8.61 ± 1.2 h | 4.268 ± 0.041 h | 5.85 ± 2.3 h | 3.574 ± 0.034 h | > 16 h |
| MKLVHMASGLAVAIALAACADKSADIQTPAPAANTSISATQQPAIQQPNVSGTVWIRQKVALPPDAVLTVTLSDASLADAPSKVLAQKAVRTEGKQSPFSFVLSFNPADVQPNARILLSAAITVNDKLVFITDTVQPVINQGGTKADLTLVPVQQTAVPVQASGGATTTVPSTSPTQVNPSSAVPAPTQY | 4.41 ± 0.88 h | 6.1 ± 0.34 h | 6.08 h | 6.69 ± 0.2 h | 5.23 ± 0.59 h | 3.57 ± 0.22 h | 5.53 ± 0.0062 h | 11.4 ± 4.4 h | 5.25 h | 9.14 ± 0.82 h | 5.51 ± 0.33 h | 11.8 ± 0.68 h |
| MKMTKLATLFLTATLSLASGAALAADSGAQTNNGQANAAADAGQVAPDARENVAPNNVDNNGVNTGSGGTMLHSDGSSMNNDGMTKDEEHKNTMCKDGRCPDINKKVQTGDGINNDVDTKTDGTTQ [P0AAV6] | 4.05 h | 4.92 ± 2.1 h | 5.44 ± 0.35 h | 6.63 ± 0.59 h | 3.73 ± 1.6 h | 1.7 h | 5.24 h | 4.86 h | 4.78 h | 10.7 ± 3.5 h | 5.84 h | 10.2 ± 1.1 h |
